Data from PMC12170345 (Nature Structural & Molecular Biology, 2025).

T1: CCDC66 (full length, GFP- or mCherry-tagged) (human, UniProt A2RUB6 1-948)
T1 construct: CCDC66, human, full-length protein; source: HEK293T, transiently transfected; purified (StrepTactin beads) for in vitro assays; in lysate for coimmunoprecipitation; not shown: GFP or mCherry, N-terminal, kept
T1 sequence (looked up): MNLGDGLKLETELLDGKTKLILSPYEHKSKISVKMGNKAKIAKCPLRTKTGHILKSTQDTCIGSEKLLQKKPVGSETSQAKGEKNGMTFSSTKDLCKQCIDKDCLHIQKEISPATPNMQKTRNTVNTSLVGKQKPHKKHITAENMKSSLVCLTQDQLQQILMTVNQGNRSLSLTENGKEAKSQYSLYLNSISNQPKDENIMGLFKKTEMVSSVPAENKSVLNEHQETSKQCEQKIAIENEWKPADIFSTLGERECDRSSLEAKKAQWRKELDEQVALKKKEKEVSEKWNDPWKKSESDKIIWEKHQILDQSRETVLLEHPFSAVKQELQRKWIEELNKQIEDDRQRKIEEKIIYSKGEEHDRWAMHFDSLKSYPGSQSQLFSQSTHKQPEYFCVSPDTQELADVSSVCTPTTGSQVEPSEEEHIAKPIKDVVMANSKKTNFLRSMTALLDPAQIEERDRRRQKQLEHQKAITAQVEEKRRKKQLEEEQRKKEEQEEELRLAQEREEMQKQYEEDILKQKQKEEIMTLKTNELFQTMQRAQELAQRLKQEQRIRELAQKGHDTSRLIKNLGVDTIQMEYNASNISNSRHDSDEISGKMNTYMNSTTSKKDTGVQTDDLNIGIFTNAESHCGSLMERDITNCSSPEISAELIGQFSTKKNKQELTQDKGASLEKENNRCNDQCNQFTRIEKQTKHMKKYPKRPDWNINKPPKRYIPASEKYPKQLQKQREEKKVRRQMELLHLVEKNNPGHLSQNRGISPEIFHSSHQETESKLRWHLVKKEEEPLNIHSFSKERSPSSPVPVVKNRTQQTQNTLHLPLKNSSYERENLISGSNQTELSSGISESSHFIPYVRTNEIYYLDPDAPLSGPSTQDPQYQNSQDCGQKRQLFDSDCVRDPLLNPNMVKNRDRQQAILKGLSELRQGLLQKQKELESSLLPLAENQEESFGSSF


Assays:
[1] = target: T1, CCDC66 (full length, GFP- or …); test: in vitro reconstitution on dynamic microtubules (TIRF microscopy); recruitment of one fluorescent protein to MTs by another that is on the MTs; 15 µM tubulin, with or without 20 nM EB3; MRB80, 50 mM KCl, 1 mM GTP, 30 °C; conditions: both partners purified
[2] = target: the molecule itself; test: single-molecule fluorescence intensity counting (TIRF microscopy); GFP-tagged protein diluted in PBS and immobilised on a plasma-cleaned coverslip; intensities compared with single GFP and GFP–EB3 dimers in adjacent chambers
[3] = target: TOGARAM1 (mouse, full length, GFP- or mCherry-tagged) (mouse, UniProt Q6A070 1-1776); test: cell-based or functional assay
Chain of TOGARAM1 (mouse, full length, GFP- or mCherry-tagged) (Q6A070 whole entry): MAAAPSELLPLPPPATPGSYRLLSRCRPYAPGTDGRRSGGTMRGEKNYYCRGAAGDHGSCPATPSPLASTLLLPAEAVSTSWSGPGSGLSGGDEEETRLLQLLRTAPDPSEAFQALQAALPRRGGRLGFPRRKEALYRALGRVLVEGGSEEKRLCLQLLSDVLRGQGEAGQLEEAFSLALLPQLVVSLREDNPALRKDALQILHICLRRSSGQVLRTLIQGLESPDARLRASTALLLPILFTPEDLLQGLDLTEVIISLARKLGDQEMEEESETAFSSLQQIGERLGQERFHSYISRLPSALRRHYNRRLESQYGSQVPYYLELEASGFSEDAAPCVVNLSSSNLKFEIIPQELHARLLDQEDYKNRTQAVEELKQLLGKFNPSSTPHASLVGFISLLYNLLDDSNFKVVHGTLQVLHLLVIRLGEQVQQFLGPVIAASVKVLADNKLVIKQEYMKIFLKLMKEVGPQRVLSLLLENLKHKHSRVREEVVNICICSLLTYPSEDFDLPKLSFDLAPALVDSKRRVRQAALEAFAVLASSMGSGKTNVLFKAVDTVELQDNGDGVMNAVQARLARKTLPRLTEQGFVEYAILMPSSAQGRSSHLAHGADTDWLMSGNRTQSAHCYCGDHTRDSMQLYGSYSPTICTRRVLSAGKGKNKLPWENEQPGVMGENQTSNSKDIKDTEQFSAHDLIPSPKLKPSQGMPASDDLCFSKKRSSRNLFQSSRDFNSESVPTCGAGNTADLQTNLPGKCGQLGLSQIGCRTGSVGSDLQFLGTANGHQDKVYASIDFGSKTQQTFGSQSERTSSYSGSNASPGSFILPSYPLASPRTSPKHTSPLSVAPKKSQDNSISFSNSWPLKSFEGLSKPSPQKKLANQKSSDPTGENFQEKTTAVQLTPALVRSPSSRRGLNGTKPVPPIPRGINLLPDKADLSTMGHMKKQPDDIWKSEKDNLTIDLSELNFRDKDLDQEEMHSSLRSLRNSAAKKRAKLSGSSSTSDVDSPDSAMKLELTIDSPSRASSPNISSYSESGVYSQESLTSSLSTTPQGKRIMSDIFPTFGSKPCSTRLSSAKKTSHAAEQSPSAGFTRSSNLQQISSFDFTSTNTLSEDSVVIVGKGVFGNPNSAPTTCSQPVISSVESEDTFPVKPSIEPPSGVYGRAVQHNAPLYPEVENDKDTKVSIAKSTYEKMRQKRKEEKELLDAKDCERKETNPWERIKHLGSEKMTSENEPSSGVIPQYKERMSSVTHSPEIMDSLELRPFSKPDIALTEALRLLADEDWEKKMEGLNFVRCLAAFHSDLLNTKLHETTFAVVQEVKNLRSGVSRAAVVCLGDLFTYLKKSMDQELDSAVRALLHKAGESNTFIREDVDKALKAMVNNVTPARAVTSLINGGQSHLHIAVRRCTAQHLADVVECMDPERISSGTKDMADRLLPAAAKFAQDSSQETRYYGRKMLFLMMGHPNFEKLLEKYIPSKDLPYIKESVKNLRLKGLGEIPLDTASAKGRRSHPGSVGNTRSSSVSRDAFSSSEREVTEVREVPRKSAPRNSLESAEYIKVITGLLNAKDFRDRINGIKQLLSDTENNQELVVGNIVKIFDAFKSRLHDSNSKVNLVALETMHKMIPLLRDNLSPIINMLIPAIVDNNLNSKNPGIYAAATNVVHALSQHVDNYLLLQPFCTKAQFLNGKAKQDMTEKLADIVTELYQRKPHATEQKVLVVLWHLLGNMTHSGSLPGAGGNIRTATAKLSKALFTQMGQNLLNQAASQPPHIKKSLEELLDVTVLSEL

binding result [1] | rescue activity of TOGARAM1 on MTs in the presence of ARMC9 [3] [fold] | Binder | stoichiometry N [2]
binds |  | CEP104 (full length, GFP- or mCherry-tagged) (natural protein, human, UniProt O60308 1-925, looked up, CEP104, human, full-length protein; Cloned into pTT5-C1-based expression vectors (vector: Addgene 52355); Dimer by single-molecule counting; also called GFP–CEP104; mCherry–CEP104; source: HEK293T, transiently transfected; purified (StrepTactin beads) for in vitro assays; in lysate for coimmunoprecipitation; not shown: GFP or mCherry, N-terminal, kept) MPHKIGFVVVSSSGHEDGFSARELMIHAPTVSGWRSPRFCQFPQEIVLQMVERCRIRKLQLLAHQYMISSKIEFYISESLPEYFAPYQAERFRRLGYVSLCDNEKTGCKARELKSVYVDAVGQFLKLIFHQNHVNKYNIYNQVALVAINIIGDPADFSDESNTASREKLIDHYLGHNSEDPALEGTYARKSDYISPLDDLAFDMYQDPEVAQIIRKLDERKREAVQKERYDYAKKLKQAIADLQKVGERLGRYEVEKRCAVEKEDYDLAKEKKQQMEQYRAEVYEQLELHSLLDAELMRRPFDLPLQPLARSGSPCHQKPMPSLPQLEERGTENQFAEPFLQEKPSSYSLTISPQHSAVDPLLPATDPHPKINAESLPYDERPLPAIRKHYGEAVVEPEMSNADISDARRGGMLGEPEPLTEKALREASSAIDVLGETLVAEAYCKTWSYREDALLALSKKLMEMPVGTPKEDLKNTLRASVFLVRRAIKDIVTSVFQASLKLLKMIITQYIPKHKLSKLETAHCVERTIPVLLTRTGDSSARLRVTAANFIQEMALFKEVKSLQIIPSYLVQPLKANSSVHLAMSQMGLLARLLKDLGTGSSGFTIDNVMKFSVSALEHRVYEVRETAVRIILDMYRQHQASILEYLPPDDSNTRRNILYKTIFEGFAKIDGRATDAEMRARRKAATEEAEKQKKEEIKALQGQLAALKEIQAEVQEKESDAVKPKNQDIQGGKAAPAEALGIPDEHYLDNLCIFCGERSESFTEEGLDLHYWKHCLMLTRCDHCKQVVEISSLTEHLLTECDKKDGFGKCYRCSEAVFKEELPRHIKHKDCNPAKPEKLANRCPLCHENFSPGEEAWKAHLMGPAGCTMNLRKTHILQKAPALQPGKSSAVAASGPLGSKAGSKIPTPKGGLSKSSSRTYAKR | 2
 | ~2 | ARMC9 (full length, GFP- or mCherry-tagged) (natural protein, human, UniProt Q7Z3E5 1-818, looked up, ARMC9, human, full-length protein; Dimer by single-molecule counting; multimers by SEC; also called GFP–ARMC9; GFP-ARMC9 FL; source: HEK293T, transiently transfected; purified (StrepTactin beads) for in vitro assays; in lysate for coimmunoprecipitation; not shown: GFP or mCherry, N-terminal, kept) MGDILAHESELLGLVKEYLDFAEFEDTLKTFSKECKIKGKPLCKTVGGSFRDSKSLTIQKDLVAAFDNGDQKVFFDLWEEHISSSIRDGDSFAQKLEFYLHIHFAIYLLKYSVGRPDKEELDEKISYFKTYLETKGAALSQTTEFLPFYALPFVPNPMVHPSFKELFQDSWTPELKLKLIKFLALISKASNTPKLLTIYKENGQSNKEILQQLHQQLVEAERRSVTYLKRYNKIQADYHNLIGVTAELVDSLEATVSGKMITPEYLQSVCVRLFSNQMRQSLAHSVDFTRPGTASTMLRASLAPVKLKDVPLLPSLDYEKLKKDLILGSDRLKAFLLQALRWRLTTSHPGEQRETVLQAYISNDLLDCYSHNQRSVLQLLHSTSDVVRQYMARLINAFASLAEGRLYLAQNTKVLQMLEGRLKEEDKDIITRENVLGALQKFSLRRPLQTAMIQDGLIFWLVDVLKDPDCLSDYTLEYSVALLMNLCLRSTGKNMCAKVAGLVLKVLSDLLGHENHEIQPYVNGALYSILSVPSIREEARAMGMEDILRCFIKEGNAEMIRQIEFIIKQLNSEELPDGVLESDDDEDEDDEEDHDIMEADLDKDELIQPQLGELSGEKLLTTEYLGIMTNTGKTRRKGLANVQWSGDEPLQRPVTPGGHRNGYPVVEDQHTPPQTAQHARNGHPQALPAAHEAVYREGKPSTPESCVSSSSAIIAKPGEWLPRGRQEEPRPAPTGTPRQPREAPQDPGNGVTTRECASAFTCKPRAPCTPEMLDWNPPKAKASVLAPLFSSCGPQQASRPGSTASSTRGLPSSQSHRK | 2
